From the supplement of paper PMC9170038

Tested on: MS2 coat protein
Test: apparent KD of MS2 coat protein; designed switch direction (-1 OFF switch, 1 ON switch): 1; higher = weaker reporter binding
Summary of the method: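 Stalled E. coli RNA polymerase transcribed designed RNA switches on Illumina chips, which were then titrated with SNAP-549-labelled MS2 coat protein, doubling from 0.7 or 1.5 nM to 3 µM. Steps lasted from 0.8–1.5 h at the lowest concentration to 10–20 min at the highest. The apparent KD is each design's median over clusters of curve-fitted normalised fluorescence.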

[1] = input ligand: microRNA oligo, concentration not stated
[2] = Eterna round: R95, input ligand: FMN 200 uM
[3] = Eterna round: R95, input ligand: microRNA oligo, concentration not stated
[4] = Eterna round: R95, input ligand: none

Sequence	apparent KD of MS2 coat protein (input ligand: FMN 200 uM)	apparent KD of MS2 coat protein [1]	apparent KD of MS2 coat protein (input ligand: none)	apparent KD of MS2 coat protein [2]	apparent KD of MS2 coat protein [3]	apparent KD of MS2 coat protein [4]
UCGAGCGUACUUGCAGACAUGAGGAUCACCCAUGUAAAUGGGAAGGAUAUGGUACCGUUUCGGUACCAGAAGGUCCUGGGUGCU [salish99_SSNG3_r04_307] (Eterna round: R96, puzzle: Same State NG 3)	0.329 µM	1.09 µM	0.984 µM			
CGGGUACAUGAGGAUCACCCAUGUAGAAGAGAUGCAGGAUAUGUGGGAAAAGGGAAUGUAACAGAAGGGCAAGGAG [JR_SS!_Sub017] (puzzle: Same State 1)				0.0474 µM	0.0561 µM	0.0941 µM
AGGUGGUGUGGAAAGGAUAUACGGUUGAGGACAUGAGGAUCACCCAUGUGGUAGAGGACGUGAGUGUAGAAGGUUCGGGAUUGGU [JR_SS@_Sub023] (puzzle: Same State 2)					0.0485 µM	
GUUACAUGAGGAUCACCCAUGUGUGUGUGGGAGUGAGUGGCUUAGGAUAUCUAUGAUUUUAGUUAAGAGAAGGAGGAUUGCUGU [SS-NG3-LRO07] (Eterna round: R96, puzzle: Same State NG 3)	0.275 µM	0.267 µM	0.414 µM			
AAUUAAUUAAUACAUGAGGAUCACCCAUGUAAUUAUUAGAUCAAGGAUAUCAGCUCGAAUAGAGCUGAGAAGGUGAUCACAUGU [SSNG3/18-A1] (Eterna round: R96, puzzle: Same State NG 3)		0.259 µM				
CAGUGCUGUCGAGAGGAUAUGCGGUGAUGGACAUGAGGAUCACCCAUGUUAGCGACAGCGUUACGGCAGAAGGCUCUACCCACUG [Soteed Omei mod 47] (puzzle: Same State 2)				0.0625 µM	0.0287 µM	0.0427 µM
UGGAUCUAGGCUUGCCUGGGUCCAUGCUGACAUGAGGAUCACCCAUGUGCAUCCUACAAGCUUUUUGCUUGUCUGCC (Eterna round: R96, puzzle: Sensor for hsa-mir-208a)	0.416 µM	0.267 µM	0.216 µM			
UUGAAGAAUUAAGGAUAUUGAUUACAUAUGUUAAACAUGAGGAUCACCCAUGUGGGUUGCGGUAUCGAGAAGGUAAAUUAAUAG [Mat - same State NG 2 - JL mod - D77] (Eterna round: R96, puzzle: Same State NG 2)		0.0896 µM				
UUGAAGAAUUAAGGAUAUUGAUUACAUAUGUUAAACAUGAGGAUCACCCAUGUGGGUUGCGGUAUCGAGAAGGUAAAUUACUAG [Mat - same State NG 2 - JL mod - D76] (Eterna round: R96, puzzle: Same State NG 2)	0.0633 µM	0.0741 µM	0.0873 µM			
AUUAAACAUGAGGAUCACCCAUGUCAUCAAAGUCGAGGAUAUGGGCAAAUAAAAUAAGAACCAGAAGGCGAAUAAU [salish99_ss1_r3_073] (puzzle: Same State 1)				0.0696 µM	0.122 µM	0.269 µM
GGAGCCGGCACUGAGGAUAUUCAUAUUUAAACAUGAGGAUCACCCAUGUAGGCCAGAAGGCCUUGGGAGAAGGCAGGUCGGCUCG [salish99_ss2_r3_076] (puzzle: Same State 2)				0.026 µM	0.216 µM	0.493 µM
AUAAAACAUGAGGAUCACCCAUGUCAACAAAGUCGAGGAUAUGGGCAAAUAAAAUAAUAACCAGAAGGCGAAUAAU [salish99_ss1_r3_018] (puzzle: Same State 1)				0.0639 µM	0.232 µM	0.546 µM
UGGUACAUGGGAGGAUAUGGGCAUGAGACAUGAGGAUCACCCAUGUUAUAAAAGCCGAGAGGCAUCUAGAAGGCCCAUGUACCU [JL SSNG1 3.91] (Eterna round: R96, puzzle: Same State NG 2)	0.0152 µM	0.0952 µM	0.139 µM			
GAAAAACAUGAGGAUCACCCAUGUAAAAAAAUGGGAGGAUAUACAAAGACGAAAGUCAAAGUAGAAGGCCUGAAAG [same state 2] (Eterna round: R96, puzzle: Same State 1)		0.0427 µM				
CUGAGCAGUCAAGGAUAUCACGUCGUUUAGACGUGAGAAGGUGACCAAUACAUGAGGAUCACCCAUGUAAUACAUGAAGCUCAG [SSNG1/12-A3] (Eterna round: R96, puzzle: Same State NG 1)	0.0162 µM	0.0178 µM	0.0372 µM			
UGAAUAGUGAUAGGAUAUACAUGAGGAAUCCUCGUAGAAGGAUCAUAACAUGAGGAUCACCCAUGUAGCCGUCGAAAGACGGCA [Mat - Same State NG 1 - JL mod - D58] (Eterna round: R96, puzzle: Same State NG 1)	0.2 µM	0.072 µM	0.122 µM			

Sequence	apparent KD of MS2 coat protein (input ligand: FMN 200 uM)	apparent KD of MS2 coat protein [1]	apparent KD of MS2 coat protein (input ligand: none)	apparent KD of MS2 coat protein [2]	apparent KD of MS2 coat protein [3]	apparent KD of MS2 coat protein [4]
UUUGGGUGGCUGGAGGAUAUUCGAGUGGUAACAUGAGGAUCACCCAUGUGUCGCGCGGUACACGAGGAGAAGGCUGGCGGCCGUU (puzzle: Same State 2)					0.0417 µM	
GUAGCAUACCGAGGAUAUUCAUAUAAUAUACAUGAGGAUCACCCAUGUUAUAGGCGAAAGCCUUGGGAGAAGGCGGAAUGCUAC [Xeonanis - 20 Mod62] (Eterna round: R96, puzzle: Same State NG 2)	0.00873 µM	0.0153 µM	0.0149 µM			
GCGGAACAGGCCGACAUGAGGAUCACCCAUGUGGCCUCAUGUCAGGAUAUCGGGAAGAAGAAAACCGAGAAGGGACGGUGACGC [AK SSNG3-V2-33.2] (Eterna round: R96, puzzle: Same State NG 3)	0.0234 µM	0.00943 µM	0.0101 µM			
CUGAGCAAGCAAGGAUAUCACGUCGAUUAGACGUGAGAAGGUGCUCCUUACAUGAGGAUCACCCAUGUAUAACAUGAAGCUCAG [SSNG1/10-A2] (Eterna round: R96, puzzle: Same State NG 1)	0.19 µM	0.902 µM	1.09 µM			
AUUGGGUAACGAGGAUAUCGUAUUUGUUUGUUUCGAGAAGGCGUUAUAGUUUCUUUCUAUUGUUACAUGAGGAUCACCCAUGUU [JR_SSNG1_Sub052] (Eterna round: R96, puzzle: Same State NG 1)	0.0191 µM	0.015 µM	0.0199 µM			
GUGGUGUAGAUACAGGAUAUGUUGCUCGUAACAUGAGGAUCACCCAUGUAUCUAUGAGAAUAAAUGCAGAAGGGUGCACACCACG [Mat - Same State 2 - Mod of UCT - D73] (puzzle: Same State 2)				0.0191 µM	0.352 µM	0.311 µM
UUGCGGGCUUGAGGAUAUUGAGUACAUAUGUUUAACAUGAGGAUCACCCAUGUGGGUUGCGGUAUCGAGAAGGUAACUUCCUCC [salish99_SSNG2_r04_809] (Eterna round: R96, puzzle: Same State NG 2)	0.169 µM	0.124 µM	0.163 µM			
AGCGAGAUAGGCAAGGAUAUGUAGUUUGGCACAUGAGGAUCACCCAUGUCAAUCCAUUUUUUGGAACAGAAGGUGCAUUCUCUUU [ak fourth] (puzzle: Same State 2)				0.0334 µM	0.0122 µM	0.0195 µM
GCUCGCGGCGCAGGAUAUGGGUGCCUGUACAUGAGGAUCACCCAUGUUAAGGGACGGAAAACGAACCAGAAGGGCGUCGCAAGC [Zaorquor] (Eterna round: R96, puzzle: Same State NG 2)	0.056 µM	0.167 µM	0.14 µM			
GGAGAACAUGAGGAUCACCCAUGUGAGAGGGAUGUAGGAUAUGUGAGGAGUAAAGGAGGGACAGAAGGACAGAGAU [JR_SS!_Sub068] (puzzle: Same State 1)				0.0374 µM	0.0405 µM	0.0477 µM
AUUAAUAAUCUAGGAUAUCACGUCGUUUAGACGUGAGAAGGAGAUCAUAACAUGAGGAUCACCCAUGUAUUACAUGAAGUUAAU [SSNG1/7-B3] (Eterna round: R96, puzzle: Same State NG 1)	0.0222 µM	0.0278 µM	0.0375 µM			
GGUCGGUCCAACAUGAGGAUCACCCAUGUACCGGAAACGGCAUAGGAUAUCUGUCCGAAAAGGUCAGAGAAGGGUGAACCGACC [Fiskers NG3ss - 72] (Eterna round: R96, puzzle: Same State NG 3)	0.421 µM	0.586 µM	0.229 µM			
CAUCUCCCUUUUACAUGAGGAUCACCCAUGUUUUCAUAUUGAGAGGAUAUCGUAUUUGGAAACAUCGAGAAGGCUCAUUUGUAU [JR_SSNG3_Sub073] (Eterna round: R96, puzzle: Same State NG 3)		0.345 µM				
AGUCCAGCCUAAGCUGGACAAAAGCAUGUACAUGAGGAUCACCCAUGUUCAUGUACAAGCUUUUUGCUCGUCUUAAU [Mat - hsa-mir-208a - Mod of JL - 60] (puzzle: Sensor for hsa-mir-208a)				0.608 µM	0.0181 µM	0.697 µM
AACAAUCUAUCUGAGGAUAUCAUGUCAAAGACAUGAGGAUCACCCAUGUACCAGGAAACUGGUUAUGAGAAGGCAGAUAGAUUGA [SS2: 1115] (Eterna round: R96, puzzle: Same State 2)	0.0482 µM	0.596 µM	0.932 µM			
AUACAUGAGGAUCACCCAUGUAAUUAAUUAAUUAAUAAGAUCUAGGAUAUCAGCUCGUUUAGAGCUGAGAAGGAGAUCACAUGU [SSNG3/21-B3] (Eterna round: R96, puzzle: Same State NG 3)		0.0198 µM				
